Data taken from PMC11293870.

Target: T1, LKB1-3xFlag (pcDNA3.1-LKB1-3xFlag) (human) (UniProt Q15831)
T1 sequence: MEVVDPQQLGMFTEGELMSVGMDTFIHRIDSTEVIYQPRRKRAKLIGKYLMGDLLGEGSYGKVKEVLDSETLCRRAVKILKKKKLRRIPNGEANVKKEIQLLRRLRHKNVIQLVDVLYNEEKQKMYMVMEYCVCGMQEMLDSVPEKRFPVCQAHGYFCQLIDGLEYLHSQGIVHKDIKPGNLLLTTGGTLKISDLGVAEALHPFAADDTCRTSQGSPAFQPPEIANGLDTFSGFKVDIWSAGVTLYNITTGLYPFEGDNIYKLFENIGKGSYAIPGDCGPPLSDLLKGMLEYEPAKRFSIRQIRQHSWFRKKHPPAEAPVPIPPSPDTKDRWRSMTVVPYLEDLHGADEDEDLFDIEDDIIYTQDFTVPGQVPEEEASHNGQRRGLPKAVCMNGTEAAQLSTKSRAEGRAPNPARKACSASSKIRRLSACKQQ

B1: STRADα-KinCon (pcDNA3.1-F[1]-STRADα-F[2]) (natural protein)
chain: MSFLVSKPERIRRWVSEKFIVEGLRDLELFGEQPPGDTRRKTNDASSESIASFSKQEVMSSFLPEGGCYELLTVIGKGFEDLMTVNLARYKPTGEYVTVRRINLEACSNEMVTFLQGELHVSKLFNHPNIVPYRATFIADNELWVVTSFMAYGSAKDLICTHFMDGMNELAIAYILQGVLKALDYIHHMGYVHRSVKASHILISVDGKVYLSGLRSNLSMISHGQRQRVVHDFPKYSVKVLPWLSPEVLQQNLQGYDAKSDIYSVGITACELANGHVPFKDMPATQMLLEKLNGTVPCLLDTSTIPAEELTMSPSRSVANSGLSDSLTTSTPRPSNGDSPSHPYHRTFSPHFHHFVEQCLQRNPDARPSASTLLNHSFFKQIKRRASEALPELLRPVTPITNFEGSQSQDHSGIFGLVTNLEELEVDDWEF
In the case of B1, the STRADα KinCon reporter bioluminescence (intramolecular RLuc PCA, closing of the conformation) on co-expression of LKB1 and MO25; HEK293T, 48 hr of expression (also HeLa and SW480) is reported as > 10 fold.
